Results on one substance are retold here after article PMC3614988.

In assay [1] the target is Rai14 (retinoic acid induced protein 14) (rat (endogenous in testis)) (UniProt Q5U312). In words: co-IP; testis lysates (800 µg protein) of rats 12 hr after a single dose of adjudin (50 mg/kg b.w., by gavage); anti-Rai14 IgG as precipitating antibody, blot with anti-actin antibody; compared with 0 hr.
The target is the same in assay [2]. In words: co-IP; testis lysates (800 µg protein) of rats 48 hr after a single dose of adjudin (50 mg/kg b.w., by gavage); anti-Rai14 IgG as precipitating antibody, blot with anti-actin antibody; compared with 0 hr.

UniProt Q5U312, sequence (Q5U312 whole entry): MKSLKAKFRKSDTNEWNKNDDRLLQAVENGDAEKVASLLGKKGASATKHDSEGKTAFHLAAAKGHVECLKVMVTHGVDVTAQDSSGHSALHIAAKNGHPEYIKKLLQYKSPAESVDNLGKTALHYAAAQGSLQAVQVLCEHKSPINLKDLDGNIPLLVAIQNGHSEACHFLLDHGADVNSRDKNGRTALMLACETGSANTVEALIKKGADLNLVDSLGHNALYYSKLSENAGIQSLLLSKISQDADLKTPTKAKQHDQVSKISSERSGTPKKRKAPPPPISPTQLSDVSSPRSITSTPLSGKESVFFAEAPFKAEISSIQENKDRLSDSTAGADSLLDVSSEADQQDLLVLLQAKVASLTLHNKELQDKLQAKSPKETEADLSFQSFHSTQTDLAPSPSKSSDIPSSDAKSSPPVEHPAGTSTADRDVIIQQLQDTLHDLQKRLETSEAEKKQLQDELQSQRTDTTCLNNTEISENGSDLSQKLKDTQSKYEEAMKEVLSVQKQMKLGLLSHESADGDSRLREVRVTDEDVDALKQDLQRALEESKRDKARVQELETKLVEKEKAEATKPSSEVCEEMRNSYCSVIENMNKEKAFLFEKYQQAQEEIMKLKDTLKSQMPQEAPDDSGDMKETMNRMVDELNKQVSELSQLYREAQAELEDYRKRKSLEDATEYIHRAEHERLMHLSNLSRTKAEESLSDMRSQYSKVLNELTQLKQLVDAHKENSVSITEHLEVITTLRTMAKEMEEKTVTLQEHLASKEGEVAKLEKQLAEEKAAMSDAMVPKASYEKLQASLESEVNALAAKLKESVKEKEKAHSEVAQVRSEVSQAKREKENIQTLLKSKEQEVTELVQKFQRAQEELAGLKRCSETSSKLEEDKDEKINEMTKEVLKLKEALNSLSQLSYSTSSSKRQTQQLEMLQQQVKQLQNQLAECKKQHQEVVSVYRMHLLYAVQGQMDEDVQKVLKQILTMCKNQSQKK

“actin (from UniProt P60711 1-375) (natural protein)”: the percent reduction of the Rai14-actin co-IP against 0 hr in assay [1] was 35%. The same substance yielded a percent loss of the Rai14-actin co-IP against 0 hr in assay [2] of 90%.
